Measurements published in the DeepSol protein solubility set.

Assay: soluble on expression in E. coli; label from the status in PepcDB or PDB records

| Sequence | soluble on expression in E. coli |
| --- | --- |
| MSLEVQDDINSVDDIDSKLYHSVEWFYENKMYEDAIVATIAIIRRFLLCGKLAPLKAFSKGKNFKLLLVEYDTQLQTKSLIFQNEPEIVTEEDKEELLAYASLIEGLILIDEWKKFVSTQINSQGKWLSTGVDSSIDKTSKTLLNLIFKWFKNTSSEKDSDLAIYSEFRSIYVPYLIIELLKIFQNAREKDWKYMRSAFSLINDVANEEQNDFLSCFLKCGRLDEFLVKAGEVSIVAVEKGISGIFYEGHHHHHH | not soluble |
| MNVLGRITAMPDLPEPLEGLKEIAYNLWWSWNPEAAELFQELDPALWKRFRGNPVKLLLELDPARLEALSASGYAARVQATREALRAYLEARRTKRGPLVAYFSAEYGFHSSLPIYAGGLGVLAGDHVKAASDLGLNLVGVGLFYHEGYFHQRLSPEGEQVEVYEPLRPEELPLVPVQDAEGRPVRVAVEFPGRLVHVGGYRVQVGAVPVYLLTTDLPENAPEDRQITARLYAAGLEARIQQELVLGLGGVRFLRALGLAPAFFHMNEGHSAFLGLERLRELVAEGYPFREALELARASALFTTHTPVPAGHDVFPLDLVDRYLGGFWEKLGVDRDTFLGLGLEEKPWGPVFSMSNLALRTAAQANGVSRLHGEVSRNMFRHLWPGLLAEEVPIGHVTNGVHTWTFLHPRLRRHYAEVFGPEWVERPEDPETWRVEGLGEAFWRIRQDLKLFLVREVRQRLYEQRRRNGEGPARLREAEKALDPEALTIGFARRFATYKRAVLLFKDPERLLRILKGPYPVQFVFAGKAHPKDEAGKAYLQELVSKIREYGLEDRMVVLEDYDMYLARVLTHGSDVWLNTPRRPMEASGTSGMKAALNGALNLSVLDGWWAEAYNGKNGFAIGDERVYESEEAQDVADAQALYDLLESEVIPLFYAKGLEGYSSGWMSMVHESLRTVGPYFSAGRMVRDYLALYERGALWEKEARARLEALKAFAEALSAFHALGVRPEVPGDLTLNGGRLEVGSVLEGEVPEGLRPHLRVQLVVRRLGGGLEVVDLEEVAPGRYRTAFRPTRPGSYTYGLRLALLHPVTGRVEWVRWA | soluble |
| GMTALRQDIDPNGLLEYSVVYTDRALNHMSKAFQEVMNDLLSNLKTVYNAEAAVIIPGSGTYGMEAVARQLTIDEDCLIIRNGWFSYRWTQILEKGKFAKSSTVLTAERTEDTEAPKPFAPVDIETAVAKIKEDKSAIVYAPHVETSSGIILSEEYIKALSEAVHSVGGLLVIDCIASGCVWLDMKELGIDVLISAPQKGWSSTPCAGLVMLSAAAIKKVESTESNCFSLDLKQWLTIMRAYENGGHAYHATMPTDSLRQFRDAILEAKEIGFDILRDAQWELGNRVRKVLTDKGIESVAAEGFEAPGVVVSYTERDDMHKGSAFAEAGLQIAAGVPLKVGEPDNFKTFRLGLFGLDKLTDIDGTVERFEKALDEVLAK | soluble |
| MEVAPSFSSVLKDCAVIEGQDFVLQCSVRGTPVPRITWLLNGQPIQYARSTCEAGVAELHIQDALPEDHGTYTCLAENALGQVSCSAWVTVH | soluble |
| MAGFSVNSPKARKSDQELVAGVLEDKKQFAAIVQRYEEPLFRYIVRQGARDRELARDILQEVFIKVYLHLNDYDASLPFSSWIYRIAHNETITHFRKEKNRPLVLDKGDDDEFFGKIVDDLELSRADGQYDVSDIQTVLERLEPRYRDILVLKFFEDKSYEEISDILQMPQGTVATLINRAKKKVKASLEKN | not soluble |
| PREQIIRLHASSGTTGKPTVVGYTANDISNWADLVARSLRAAGLRKGDMIHNAYGYGLFTGGLGAHYGIERLGATVVPMSGGQTEKQVGLITDFKPTGIMVTPSYMLNILEQYHKVGMDPRESSLQVGVFGAEPWTDAMRREVEEAFDMHAVDIYGLSEIMGPGVANECVETKDGPVI | not soluble |
| GYIDTGLYQNKEDILNSPRRLGSTQTKLGDIGYTDVNGDGKIDGEDQVRIGKPTMPHFTYAFDFSLGYEGFTLSGLLYGTGERYMTFGNRYQSGEGKYLYYENQLNYWRPDNTGADFPRISISSGVNGNNNKAGSTFWMRNASYLRLKDLQLSYDFKYKYLKKCDWLQTCRVNLSGSNLFTISGVSKFFDPETSSTSGDGYPVQRVYSIGVTIGF | not soluble |
| MGSDKIHHHHHHVPVADRVSKVDVIAFRLAAHHLDERLGEGGLLDAAGRCGIQNSPPGSALLALHARVRNLTQQQVAGAVAKEKSLLQTWCMRGSPFYFPALDAPVFTTGVLPPTEEAMRHLVVGVEPALDKLGISLTEAVELADAEIHEVLSGRRLAINELGAEIATRIARRLPKRQRDIWEDNGPYAPGQPLGEGVVHFCVRILTLQRVLCLAPRVGNQSPFVLVDEWLGDPIPDIDPELARAELLRRYLRCYGPSTRGDFASWAGVHAGDTGPWWNLVGTELTPVEFGGTSWILTEDLDALRSAPAPTGVRLLPPGDPYTQMRDRETIVDKKYHREVWRMAGGPGTVLAGGKITGTWRSRKSGRKLALTITTFGSLPDRDRTSLQGEAGQVAALRGASSVDVAFGTY | not soluble |
| MGSDKIHHHHHHMTKFSVYIGIDWANDKHDVCVQVANSSARKFEVIKHSPKSINEWITSLHKQYKGQIAVAIELSKGPIVYALQKFDFITIHPVNTSMLAQYRKAFSPSGAKDDPTDAELALDLMLRYPNKIKALKMDSESVRKLTYLVEQRRKLVDDKRRFSNRLIITLKEYYPHLLDWFSHRGSGIFCDFITRWPNLQKLKRARADTLKKFFGSYPGRTAAYSVKRIQSISEAEPLTLDNAVIESHQLLAVALANQLLVAVKVIKVFDREISELFNALPDAELYKSLPGTGPCLAPRLLVAIGENRSRFNSASEIQMYAVIAPVTVRSGQKSWIHWRYQCSKFTRQSFIEWATKSIRQSYWAEIYYQQQREKGNTHQAAVRSLAFKWIRIIYRCWKTKEPYNEAKYLKALSDRNSPLLFKEKAC | not soluble |
| SVEDELALFDKSINEFWNKFKSTDTSCQMAGLRDTYKDSIKAFAEKLSVKLKEEERMVEMFLEYQNQISRQNKLIQEKKDNLLKLIAEVKGKKQELEVLTANIQDLKEEYSRKKETISTANKANAERLKRLQKSADLYKDRLGLEIRKIYGEKLQFIFTNIDPKNPESPFMFSLHLNEARDYEVSDSAPHLEGLAEFQENVRKTNNFSAFLANVRKAFTATVYN | soluble |
| MAHHHHHHMDRLAGSFLSNGDVANASSLYNSLEKLNPTRYSRMARICRVLLNPQGVPLPHRHLDICEALLDPLVPPEVLLRDSAENVQKSFQRLAVCAHPDKNPSPSANEAFLRLTMMKDKALELLRNGVGRKCDGATEAPPGKAADSNGGKGKPKMQGSGPAVPTVAHRRRPLRPGVPLPAAATAVTSDINTAAAVSSKISQLRRTKITLNALKRKDIADDFEIFSATQRTTAVQSEVSHSDVGEDHLATTVPVMSTKERARCANRRRSQSSAPQEKTTTVPRASSPNSNPLLSSSLYYAMPVSPHKPLSPSPQTLEDPTGSVKSSGAGDRDASALYSPFIPTAAIPADSDAIRRQIDEACLRLREMRLQHTTVRLDLDLSFEAYERSKQPQ | not soluble |
| MDDKEKNAEVAKAIKLPDLASYMQVVIKQLEIDKKWSAVHTYTYTLKSVTEFYGGKGTPVPIDEAFTSGRLKEYEEWMRLEGTRNKKTDKKRSDRKHGVPKGLSLNTISTYMRTLKAVYNRLADKKILPYNPKLFDNVYTKVESQTKRALDTKQMNTLLHTDIEKLPKEMQCALAYFLLMFLFRGMPFIDLAHLRKQDVKGKYIVYSRHKTGRQITVRIPKEAMKLIEKFKNMNYDSIYLFPILDKKNAAKEQSQKNGKIKKDKELYMNYLRVLRNFNLKLEKIATLLLPDVKLSSYTPRHTWATLAFHAGVNIGIICKALGHSSIKVTETYLKPFENEKVDIANDELIISVVAHNGEKEVA | not soluble |
| AIAADRTVPHAYPMSMDYEMCTPPRIYDQNFAEALSPKELLAPVLYHGYYIRPRINKQLERGFSQVESEDDWYRVLLDVCQFTPDEISVRTVDNLLEVSARHAQRMDQHGFVSREFTRTYILPMGVDPLLVQVSLSHDGILCIQAPRKTEDLEPQINQLKIKVEKKESTSK | soluble |
| SLKGLKAYRLDVPPMLADRGIDRMLAFAVPLTVRFRGIKVREGTLLHGPEGWGEWSPFWDYDPVESASWLRAGIEGATRRLPVARRDRVPINVTIPVVDADRAGRMAAESACLTAKVKVADPRSDLREDCRRVAAVREAMPDGHIRVDANTAWDVDAAVRAITELDAAAEGLEYVEQPCASVAELAQVRRKVNVPVAADESVRRAEDPLAVARAGAADLLIVKAQPLGGVARALEVIDATGLPAVVSSALDTSIGIGLATYLAAALPSLDHACGLGTIRLFQGDVSASPLLPVDGYLRPRRGEVDVEVEESDTDLCPRWSQRLALTVAALVERERS | not soluble |
| MGSLDHGAKEQLQSEEFGERKQFEDKELGAKKDEALHVLEGLITRSKTKLLNQAITTLLQKIEGSLKLEACPTTLVVIQAV | not soluble |
| MTEPGERRRRTTSTATRERGVRDARDAARRAADALSELIRHHLEGVSAVCRGEDGGWIVNVDVLEVARIPDTTSLLATYEVELDPAGDLLQYRRIARYRRGAQDQLEHHHHHH | not soluble |
| MGSDKIHHHHHHMTQVIPPRCDTCACDDADWCHLQETTKLLLLATAQIELSLTDGDHNVTGLGQLFTQMAGHLTEVNRHLHGTADTPAAILAHSDSLMQAIDSGVMAFQFYDRISQRLNHVITALSLMEAMLGDEQRRHSQAAWTNLQGEIQAHYSLDCERQMFAALLEGVPIHEALNAYRETHLHQTKQDVELF | not soluble |
| MSLSDGAVVRALVLEAPRRLVVRQYRLPRIGDDDALVRVEACGLCGTDHEQYTGELAGGFAFVPGHETVGTIAAIGPRAEQRWGVSAGDRVAVEVFQSCRQCANCRGGEYRRCVRHGLADMYGFIPVDREPGLWGGYAEYQYLAPDSMVLRVAGDLSPEVATLFNPLGAGIRWGVTIPETKPGDVVAVLGPGIRGLCAAAAAKGAGAGFVMVTGLGPRDADRLALAAQFGADLAVDVAIDDPVAALTEQTGGLADVVVDVTAKAPAAFAQAIALARPAGTVVVAGTRGVGSGAPGFSPDVVVFKELRVLGALGVDATAYRAALDLLVSGRYPFASLPRRCVRLEGAEDLLATMAGERDGVPPIHGVLTEGHHHHHH | not soluble |
| MHYLSPLSLSLFLFCIEGHRESFSFFPSHDDGWAEPTARSEGKRERERERERERERGERGPTDTLSLSLSQFT | not soluble |
| MGSDKIHHHHHHAATVKLTIIKSDLDMKASGGTGTVEFAATGTVTATVNADWCQVIEVADHKVSISVDANTGYPGRSAQIVLTDGVSTQQATILQEGAIWKYNRDATYFTLTDAAEEVPVEMSSNLPIQVSIPADASQWLSYEMTSDGFKFIAKENLTGKIRSAIVKVTTGIREIEYALLQYDIDDLLGQWTGVVKVVATAFGINQVLSLEENTQIVKNPGGNGYIFQLPMTRLLGATIVLAVTYQDGALVITTPQQQNYALSDGQGGVMYGSIITKTDDGLYLQGKIILSPVLMNDGQVALAYITDAYMSMGLFKGRVPSTANYAGLSIDFPAILMQYAE | not soluble |
| MRIVVTRPQRSGERTAAKLEALGHAPVLLPLFHPIHHGERATSALSDPAGAIAVTSAEALRALATCEEQLAPYLSKPLFAVGGATAEAAQETGFEQIFTASGDALGLTVLVKQHRAFLTEEEPLLYLAGRPRGSVFEEGLAAAGIPFRTVDCYEMLPSDISENTLETTLLDTTADMVLLYSSEAARAFFHHVSADKYVTALAATKFICISRNVLFLVPEIFRANAKAAEEPSEAAMFELLHHNSGT | not soluble |
| SSGAQGAEPMDSRTATTYESVEGGQNKTKLDIRSKEDEGGIQVDKLQDKVSDAAGLGGPVFGAGKDDKKQDLGVTGTG | soluble |
